In patent publication CN109942708A (SHANGHAI KEQI PHARMACEUTICAL TECH CO LTD, dated 2019) one finds OD450, binding result and Kd data, which are given here for 3 molecules.

For assay [1], the target named is BCMA-FC抗原 (UniProt Q02223). Description: phage ELISA on coated BCMA-FC, helper phage control.
Assay [2] concerns the target BCMA-his抗原 (UniProt Q02223). Description: phage ELISA on coated BCMA-his, helper phage control. For orientation: An ELISA detects its analyte on a solid surface through an enzyme-linked reagent.
Assay [3] concerns the target BCMA-his抗原 (UniProt Q02223). Described as above. The source holds these as a separate data set.
In assay [4] the target is BCMA-FC抗原 (UniProt Q02223). Description: phage ELISA on coated BCMA-FC.
For assay [5], the target named is BCMA-his抗原 (UniProt Q02223). Description: phage ELISA on coated BCMA-his.
The target in the next assay is T1, CD38 (UniProt P28907 43-300).
T1 construct: Coated antigen in the specificity ELISA; also called CD38抗原
T1 sequence (looked up): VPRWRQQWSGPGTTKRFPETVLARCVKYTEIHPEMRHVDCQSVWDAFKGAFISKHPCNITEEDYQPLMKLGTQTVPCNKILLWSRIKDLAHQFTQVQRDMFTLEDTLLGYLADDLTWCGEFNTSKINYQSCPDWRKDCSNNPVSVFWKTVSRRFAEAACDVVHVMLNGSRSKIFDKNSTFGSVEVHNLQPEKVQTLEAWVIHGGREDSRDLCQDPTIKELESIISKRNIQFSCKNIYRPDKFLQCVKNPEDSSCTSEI
Description: ELISA on antigen coated at 10ug/mL.

The next assay concerns the target T2, CD138 (UniProt P18827 23-254, limits assumed).
T2 construct: Coated antigen in the specificity ELISA; also called CD138抗原
T2 sequence (looked up): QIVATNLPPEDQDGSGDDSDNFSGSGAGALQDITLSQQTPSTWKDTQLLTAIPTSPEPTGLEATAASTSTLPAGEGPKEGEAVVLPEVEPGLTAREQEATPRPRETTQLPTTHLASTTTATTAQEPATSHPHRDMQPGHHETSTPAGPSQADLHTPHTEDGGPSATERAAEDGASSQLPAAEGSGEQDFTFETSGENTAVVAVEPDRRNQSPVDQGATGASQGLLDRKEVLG
Description: ELISA on antigen coated at 10ug/mL.

The next assay concerns the target T3, BCMA抗原 (UniProt Q02223 1-54).
T3 construct: Recombinant BCMA antigen as immobilised on the Biacore chip and coated in the specificity ELISA; also called B细胞成熟抗原; B cell maturation antigen
T3 sequence (looked up): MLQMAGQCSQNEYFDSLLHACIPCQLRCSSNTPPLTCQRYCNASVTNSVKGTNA
Description: SPR, Biacore T2000, BCMA amine-coupled to the chip, VHH injected, 25°C. (In SPR one partner is held on a chip, and binding of the other changes the refractive index at the surface.)

Broadly, the Kd is the concentration at which binding is half-saturated. A high value points to weaker binding.

Where “and” joins values, the source holds several entries; their conditions need not be identical. Equal values may be shown once.

Consider M13K07, for which the OD450 with BCMA-FC抗原 [1] was 0.518 OD450 and 0.332 OD450; in the assay with BCMA-his抗原 [2] it was 0.85 OD450 and 0.631 OD450; with BCMA-his抗原 [3], 2.36 OD450 and 2.38 OD450.

B1: BCMA单域抗体B1 (VHH)
VHH: QVQLVESGGGLVQPGGSLRLSCTASGSILSIYAMGWYRQAPGKQRELVAAINISSNTFYRDSVKGRFTISRDNAENTVYLQMNSLKPEDTAVYYCNVAPWGDYDVKTDFGGWGQGTQVTVSS
notes: FITC-labelled for flow cytometry; also called B1抗体
On to B1, for which the OD450 with BCMA-FC抗原 [4] came out at 2.96 OD450; with BCMA-his抗原 [5], 2.33 OD450. In addition, the binding result with CD38 and with CD138 was “no binding” in each case. In the assay with BCMA抗原, this molecule registered a dissociation constant (Kd) of 2.14 nM.

B2: BCMA单域抗体B65 (VHH)
VHH: QLQLVESGGGLVQPGGSLRLSCAASGSISGIYAMGWYRQAPGKQRRLVAAITSGGDTFHADSVKGRFTISRDNAKNTMYLQMNSLKPEDTAVYYCNVAPWGDYDVRADFGSWGQGTQVTVSS
notes: FITC-labelled for flow cytometry; also called B65抗体
In the assay with BCMA-his抗原 [5], B2 returned an OD450 of 2.76 OD450. Moreover, the binding result with CD38 and in the assay with CD138 was “no binding” each time. Binding in the assay with BCMA抗原 was put at a Kd of 0.32 nM.
